Laboratory results published in patent publication US8110387B2, “Polypeptide having NADH dependent HMF reductase activity” (C5 Ligno Technologies Lund AB, priority 2007, dated 2012).

What was measured:
Type in all cases: biochemical, Saccharomyces cerevisiae
[1] = In vitro NADH-dependent furan reductase activity of ADH1 mutants in cell extracts, furfural as substrate; set-up: key: —: no detectable activity; detectable activity (ranging from moderate (+) to very high (+++)); detectable activity (ranging from moderate (+) to very high (+++)); detectable activity (ranging from moderate (+) to very high (+++)); conditions: 10 mM furfural, 200 μM NADH, cell extract of CEN.PK 113-5D transformant, pH 6.7, 30° C.
Description: (§1) Plasmid carrying individual or combined mutations within the ADH1 gene were introduced in strain CEN.PK 113-5D by transformation according to the lithium acetate method (Gietz et al., 1992, Improved method for high efficiency transformation of intact yeast cells. Nucleic Acids Research 20:1425). Selection was performed on SD plates without uracil. The resulting strains were grown aerobically at 30° C. in 25 mL SD medium without uracil (in 250 mL baffled flask). Cell extracts were prepared by harvesting the cells at OD620 7.5-8.5, re-suspending the cells in Y-PER solution (Pierce, Rockford, Ill., USA), 1 mL/0.6gr cells, shaking at room temperature for 50 min. The supernatant was collected after centrifugation for 20 min at 15000 g. In vitro NADH-dependent furan reductase activity was measured by following the oxidation of NADH at 340 nm in a Hitachi U-2000 spectrophotometer (Hitachi, Tokyo, Japan). The assay consisted of 10 mM furaldehyde (HMF or furfural), 200 μM NADH and cell extract in 100 mM phosphate buffer (pH 6.7) at 30° C.

[2] = In vitro NADH-dependent furan reductase activity of ADH1 mutants in cell extracts, HMF as substrate; set-up: key: —: no detectable activity; detectable activity (ranging from moderate (+) to very high (+++)); detectable activity (ranging from moderate (+) to very high (+++)); detectable activity (ranging from moderate (+) to very high (+++)); conditions: 10 mM HMF, 200 μM NADH, cell extract of CEN.PK 113-5D transformant, pH 6.7, 30° C.
Description: as §1

[3] = Enzyme kinetics of Adh1 variants, NADH-dependent reduction of furfural
Description: (§2) Cells were grown aerobically at 30° C. in 25 mL SD medium without uracil (in 250 mL baffled flask). Cell extracts were prepared by harvesting the cells at OD620 7.5-8.5, re-suspending the cells in Y-PER solution (Pierce, Rockford, Ill., USA), 1 mL/0.6 gr cells, shaking at room temperature for 50 min. The supernatant was collected after centrifugation for 20 min at 15000 g.
(§3) In vitro NADH-dependent furan reductase activity was measured by following the oxidation of NADH at 340 nm in a Hitachi U-2000 spectrophotometer (Hitachi, Tokyo, Japan). NADH-dependent aldehyde reduction was determined (Wahlbom and Hahn-Hägerdal, 2002) with 200 μM NADH. Reduction kinetics were determined for acetaldehyde (range […]-100 mM), furfural (100 μM-20 mM) and HMF (500 μM-20 mM). For native Adh1 furfural was used up to 40 mM.
(§4) Modeling was performed according to the Michaelis-Menten equation with the addition of a substrate inhibition constant: V=(Vmax·[S])/(Km+[S]+[S]2/KI), V—velocity, Vmax—maximal velocity, Km—affinity constant, Ki—substrate inhibition constant, and [S]—substrate concentration. Parameter value estimation was according to the least square method, using the solver function in Microsoft® Excel 2002. HMF activity parameters of strain BY474-ADH1-S117L were estimated without the substrate inhibition constant due to a clear discrepancy of the substrate inhibition model with actual data.

[4] = Enzyme kinetics of Adh1 variants, NADH-dependent reduction of acetaldehyde
Description: as §2, §3, §4

[5] = 200 μM NADH, cell extract of BY4741

B1: V59T-Q148E-I152V-L117S-Y295C: mutated Adh1 from TMB3000 with reverse mutation at position 110 (protein, UniProt P00330 2-348, looked up, variant V59T Q148E I152V L117S Y295C)
Alcohol dehydrogenase 1: SIPETQKGVIFYESHGKLEYKDIPVPKPKANELLINVKYSGVCHTDLHAWHGDWPLPTKLPLVGGHEGAGVVVGMGENVKGWKIGDYAGIKWLNGSCMACEYCELGNESNCPHADSSGYTHDGSFQQYATADAVQAAHIPQGTDLAEVAPVLCAGITVYKALKSANLMAGHWVAISGAAGGLGSLAVQYAKAMGYRVLGIDGGEGKEELFRSIGGEVFIDFTKEKDIVGAVLKATDGGAHGVINVSVSEAAIEASTRYVRANGTTVLVGMPAGAKCCSDVFNQVVKSISIVGSCVGNRADTREALDFFARGLVKSPIKVVGLSTLPEIYEKMEKGQIVGRYVVDTSK
For B1, the “NADH-dependent Activity Furfural Reductase” value [1] was “+” and the “NADH-dependent Activity HMF reductase” value [2] was “+”.

B2: BY4741-control: native S. cerevisiae Adh1 (V59, S110, L117, Q148, I152, Y295) overexpressed in ΔAdh1 strain BY4741 (protein, UniProt P00330 2-348, looked up)
Alcohol dehydrogenase 1: SIPETQKGVIFYESHGKLEYKDIPVPKPKANELLINVKYSGVCHTDLHAWHGDWPLPVKLPLVGGHEGAGVVVGMGENVKGWKIGDYAGIKWLNGSCMACEYCELGNESNCPHADLSGYTHDGSFQQYATADAVQAAHIPQGTDLAQVAPILCAGITVYKALKSANLMAGHWVAISGAAGGLGSLAVQYAKAMGYRVLGIDGGEGKEELFRSIGGEVFIDFTKEKDIVGAVLKATDGGAHGVINVSVSEAAIEASTRYVRANGTTVLVGMPAGAKCCSDVFNQVVKSISIVGSYVGNRADTREALDFFARGLVKSPIKVVGLSTLPEIYEKMEKGQIVGRYVVDTSK
In the case of B2, the “[S]Vmax - substrate concentration at observed Vmax” value [3] is reported as 30 mM, the “Ki (substrate inhibition constant)” value [3, 5] is reported as 1363 mM and the “obsVmax (observed Vmax)” value ([3]; substrate furfural) is reported as 4345 mU/mg. For the same molecule, the Km ([3]; substrate furfural, 200 μM NADH, cell extract of BY4741) was 18.8 mM, the Vmax ([3]; substrate furfural, 200 μM NADH, cell extract of BY4741, model with substrate inhibition) was 6530 (mU)/mg and the “[S]Vmax - substrate concentration at observed Vmax” value [4] was 1 mM. The “Ki (substrate inhibition constant)” value [4, 5] was 12.5326 mM, the “obsVmax (observed Vmax)” value ([4]; substrate acetaldehyde) was 35300 mU/mg and the Km ([4]; substrate acetaldehyde, 200 μM NADH, cell extract of BY4741) was 0.217 mM. For the same molecule, the Vmax ([4]; substrate acetaldehyde, 200 μM NADH, cell extract of BY4741, model with substrate inhibition) was 45070 (mU)/mg.

B3: V59T-Q148E-I152V-S110P-L117S: mutated Adh1 from TMB3000 with reverse mutation at position 295 (protein, UniProt P00330 2-348, looked up, variant V59T Q148E I152V S110P L117S)
Alcohol dehydrogenase 1: SIPETQKGVIFYESHGKLEYKDIPVPKPKANELLINVKYSGVCHTDLHAWHGDWPLPTKLPLVGGHEGAGVVVGMGENVKGWKIGDYAGIKWLNGSCMACEYCELGNEPNCPHADSSGYTHDGSFQQYATADAVQAAHIPQGTDLAEVAPVLCAGITVYKALKSANLMAGHWVAISGAAGGLGSLAVQYAKAMGYRVLGIDGGEGKEELFRSIGGEVFIDFTKEKDIVGAVLKATDGGAHGVINVSVSEAAIEASTRYVRANGTTVLVGMPAGAKCCSDVFNQVVKSISIVGSYVGNRADTREALDFFARGLVKSPIKVVGLSTLPEIYEKMEKGQIVGRYVVDTSK
In the case of B3, the “NADH-dependent Activity Furfural Reductase” value [1] is reported as “+”.

B4: S110P: native Adh1 with the single substitution S110P (protein, listed as Saccharomyces cerevisiae)
chain: MSIPETQKGVIFYESHGKLEYKDIPVPKPKANELLINVKYSGVCHTDLHAWHGDWPLPTKLPLAGGHEGAGVVVGMGENVKGWKIGDYAGIKWLNGSCMACEYCELGNEPNCPHADSSGYTHDGSFQQYATADAVQAAHIPQGTDLAEVAPVLCAGITVYKALKSANLMAGHWVAISGAAGGLGSLAVQYAKAMGYRVLGIDGGEGKEELFRSIGGEVFIDFTKEKDIVGAVLKATDGGAHGVINVSVSEAAIEASTRYVRANGTTVLVGMPAGAKCCSDVFNQVVKSISIVGSYVGNRADTREALDFFARGLVKSPIKVVGLSTLPEIYEKMEKGQIVGRYVVDTSK
For B4, the “NADH-dependent Activity Furfural Reductase” value [1] was “++”.

B5: Y295C: native Adh1 with the single substitution Y295C (protein, listed as Saccharomyces cerevisiae)
chain: MSIPETQKGVIFYESHGKLEYKDIPVPKPKANELLINVKYSGVCHTDLHAWHGDWPLPTKLPLAGGHEGAGVVVGMGENVKGWKIGDYAGIKWLNGSCMACEYCELGNESNCPHADSSGYTHDGSFQQYATADAVQAAHIPQGTDLAEVAPVLCAGITVYKALKSANLMAGHWVAISGAAGGLGSLAVQYAKAMGYRVLGIDGGEGKEELFRSIGGEVFIDFTKEKDIVGAVLKATDGGAHGVINVSVSEAAIEASTRYVRANGTTVLVGMPAGAKCCSDVFNQVVKSISIVGSCVGNRADTREALDFFARGLVKSPIKVVGLSTLPEIYEKMEKGQIVGRYVVDTSK
In the case of B5, the “NADH-dependent Activity Furfural Reductase” value [1] is reported as “+++” and the “NADH-dependent Activity HMF reductase” value [2] is reported as “+”.
